Measured values from the Human Domainome abundance scans (Beltran et al. 2025).
± gives the uncertainty stated by the source.

B1: Far upstream element-binding protein 2, residues 142 to 214; numbered along this chain, Q92945 (parent)
chain: RTSMTEEYRVPDGMVGLIIGRGGEQINKIQQDSGCKVQISPDSGGLPERSVSLTGAPESVQKAKMMLDDIVSR

Variants of: B1
Experiment: abundance fitness (aPCA) (normalised: wild type 0, dead -1); higher = more abundant; growth selection in yeast, the domain comes from the species named
Settings: Homo sapiens

Abundance fitness of substitutions, site by site:
R21: G -0.043 ± 0.036; Y -0.148 ± 0.06; F -0.146 ± 0.065; I -0.191 ± 0.06; L 0.042 ± 0.037; P 0.008 ± 0.042; D 0.133 ± 0.055; V -0.068 ± 0.037; A 0.026 ± 0.039; E 0.088 ± 0.04; S 0.02 ± 0.039; M -0.002 ± 0.047; C -0.012 ± 0.055; Q -0.015 ± 0.045; T -0.004 ± 0.043; K 0.056 ± 0.051; N 0.074 ± 0.069; W -0.353 ± 0.045
C35: Q -0.791 ± 0.087; Y -0.847 ± 0.12; V -0.209 ± 0.043; F -1.15 ± 0.18; E -0.563 ± 0.054; W -1.19 ± 0.069; N -0.914 ± 0.14; L -0.787 ± 0.06; K -0.545 ± 0.071; P -0.658 ± 0.068; A -0.029 ± 0.046; I -0.786 ± 0.16; G -0.756 ± 0.042; R -0.848 ± 0.045; M -0.866 ± 0.082; D -0.564 ± 0.079; H -0.917 ± 0.13; T -0.406 ± 0.058
E24: L -0.199 ± 0.047; W 0.666 ± 0.048; H -0.019 ± 0.09; V -0.092 ± 0.042; Y 0.05 ± 0.11; T -0.071 ± 0.058; P -0.797 ± 0.071; A -0.112 ± 0.045; K -0.078 ± 0.058; S -0.076 ± 0.047; D -0.104 ± 0.067; N -0.106 ± 0.11; R -0.03 ± 0.04; F -0.03 ± 0.086; G -0.215 ± 0.039; I -0.251 ± 0.11; M -0.059 ± 0.069
I18: T -0.282 ± 0.052; V -0.158 ± 0.041; W -0.562 ± 0.049; Y -0.494 ± 0.079
I19: D -0.179 ± 0.076; R -0.091 ± 0.044; W -0.144 ± 0.07; V -0.016 ± 0.049; A -0.096 ± 0.048; N -0.029 ± 0.097; M 0.096 ± 0.068; E -0.103 ± 0.076; K -0.01 ± 0.072; P -0.35 ± 0.051; C -0.114 ± 0.078; L 0.008 ± 0.045; H -0.17 ± 0.073; Y 0.005 ± 0.081; F -0.098 ± 0.083; G -0.146 ± 0.054; Q -0.105 ± 0.061
Q31: I -0.135 ± 0.097; F -0.105 ± 0.096; A -0.109 ± 0.046; E -0.08 ± 0.058; T 0.015 ± 0.057; K -0.137 ± 0.08; H -0.005 ± 0.087; Y -0.166 ± 0.13; M -0.073 ± 0.071; P -0.98 ± 0.065; R -0.069 ± 0.039; S -0.136 ± 0.048; W -0.316 ± 0.054; D -0.16 ± 0.081; V -0.207 ± 0.05
G23: R -0.11 ± 0.039; K -0.177 ± 0.068; V -0.257 ± 0.047; A -0.149 ± 0.048; M -0.141 ± 0.07; D -0.187 ± 0.084; W -0.32 ± 0.051; S -0.178 ± 0.05; N -0.241 ± 0.12; T -0.27 ± 0.067; Q -0.126 ± 0.064; L -0.169 ± 0.049; C -0.212 ± 0.065; F -0.3 ± 0.11; Y -0.393 ± 0.2; P -0.314 ± 0.059
G20: F -1.01 ± 0.14; L -1.07 ± 0.059; Q -0.4 ± 0.061; P -0.576 ± 0.053; K -0.401 ± 0.062; T -0.59 ± 0.059; D -0.086 ± 0.065; V -1.38 ± 0.076; C -1.28 ± 0.11; W -0.96 ± 0.067; R -0.428 ± 0.042; M -0.805 ± 0.087; I -1.09 ± 0.18; H -0.576 ± 0.099; S -0.298 ± 0.043; N -0.389 ± 0.1
V37: N -1.21 ± 0.17; A -0.372 ± 0.048; R -0.804 ± 0.045; W -0.916 ± 0.064; F -0.677 ± 0.1; T -0.484 ± 0.069; K -0.965 ± 0.089; D -0.597 ± 0.081; Y -0.974 ± 0.15; E -0.704 ± 0.064; S -0.815 ± 0.057; H -0.962 ± 0.12; I -0.014 ± 0.07; P -0.62 ± 0.065; Q -0.811 ± 0.081; C -0.144 ± 0.068; G -0.905 ± 0.045; M -0.14 ± 0.065
Q25: T 0.022 ± 0.058; W -0.17 ± 0.076; M -0.127 ± 0.095; F -0.181 ± 0.13; Y -0.06 ± 0.16; K -0.158 ± 0.068; A -0.004 ± 0.043; I -0.015 ± 0.11; P -0.264 ± 0.052; G 0.005 ± 0.037; H -0.256 ± 0.099; V -0.019 ± 0.053; L -0.039 ± 0.046; C -0.099 ± 0.12; S -0.067 ± 0.05; E 0.004 ± 0.053
S33: D -0.916 ± 0.096; A -0.138 ± 0.044; M -0.806 ± 0.086; G -0.861 ± 0.049; F -0.474 ± 0.092; R -1.06 ± 0.056; N -0.897 ± 0.15; Y -0.55 ± 0.097; V -0.714 ± 0.053; P -1.01 ± 0.075; W -1.09 ± 0.08; H -0.854 ± 0.11
